Test results as given in doi:10.1101/2025.11.06.685569 (bioRxiv, 2025).
Where a chain is given by its changes, count along the chain named.

T1: FLAG-tagged Atg23 (S. cerevisiae, UniProt Q06671 1-453)
T1 sequence (looked up): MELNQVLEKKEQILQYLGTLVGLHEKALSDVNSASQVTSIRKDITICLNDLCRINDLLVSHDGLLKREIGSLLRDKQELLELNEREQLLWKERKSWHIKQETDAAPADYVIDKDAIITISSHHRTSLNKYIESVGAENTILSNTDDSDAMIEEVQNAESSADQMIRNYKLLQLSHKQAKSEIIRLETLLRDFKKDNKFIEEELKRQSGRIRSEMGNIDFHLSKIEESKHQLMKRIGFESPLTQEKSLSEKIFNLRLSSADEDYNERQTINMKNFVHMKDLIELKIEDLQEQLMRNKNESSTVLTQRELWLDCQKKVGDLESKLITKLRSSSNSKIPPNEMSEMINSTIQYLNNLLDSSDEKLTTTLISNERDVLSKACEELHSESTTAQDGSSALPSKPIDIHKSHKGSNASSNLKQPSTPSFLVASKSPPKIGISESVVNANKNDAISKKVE

T2: Atg23^Y16A_K42A_D43A_E380A mutant (S. cerevisiae, UniProt Q06671 1-453, Y16A | K42A | D43A | E380A)
T2 sequence (looked up): T1 sequence (looked up) with Y16A, K42A, D43A, E380A

T3: Atg23 (no tag named in the legend) (S. cerevisiae, UniProt Q06671 1-453)
T3 sequence (looked up): T1 sequence (looked up)

B1: Myc-Atg9^CTR_939-997-StrepII^2x (domain or fragment, S. cerevisiae, UniProt Q12142 939-997, looked up)
chain: NDHEYVLTESFLDSGAFPNHDVIDHNKMLNSNYNGNGILNKGGVLGLVKEYYKKSDVGR
B2: Myc-tagged Atg23 (natural protein, S. cerevisiae, UniProt Q06671 1-453, looked up)
chain: T1 sequence (looked up)
B3: FLAG-tagged Atg9^CTR (domain or fragment, S. cerevisiae, UniProt Q12142 758-997, looked up)
chain: ENSEYVDGLGYVCKYAMFNMKNIDGEDTHSMDEDSLTKKIAVNGSHTLNSKRRSKFTAEDHSDKDLANNKMLQSYVYFMDDYSNSENLTGKYQLPAKKGYPNNEGDSFLNNKYSWRKQFQPGQKPELFRIGKHALGPGHNISPAIYSTRNPGKNWDNNNNGDDIKNGTNNATAKNDDNNGNNDHEYVLTESFLDSGAFPNHDVIDHNKMLNSNYNGNGILNKGGVLGLVKEYYKKSDVGR
B4: FLAG-tagged Atg9^CTR_S948A_S969A (domain or fragment, S. cerevisiae, UniProt Q12142 758-997, looked up)
chain: B3 chain with S191A, S212A
B5: FLAG-tagged Atg9^CTR_Y989F_Y990F (domain or fragment, S. cerevisiae, UniProt Q12142 758-997, looked up)
chain: B3 chain with Y232F, Y233F
B6: FLAG-tagged Atg9^NTR (domain or fragment, S. cerevisiae, UniProt Q12142 1-318, looked up)
chain: MERDEYQLPNSHGKNTFLSRIFGLQSDEVNPSLNSQEMSNFPLPDIERGSSLLHSTNDSREDVDENDLRVPESDQGTSTEEEDEVDEEQVQAYAPQISDGLDGDHQLNSVTSKENVLETEKSNLERLVEGSTDDSVPKVGQLSSEEEEDNEFINNDGFDDDTPLFQKSKIHEFSSKKSNTIEDGKRPLFFRHILQNNRPQRDTQKLFTSSNAIHHDKDKSANNGPRNINGNQKHGTKYFGSATQPRFTGSPLNNTNRFTKLFPLRKPNLLSNISVLNNTPEDRINTLSVKERALWKWANVENLDIFLQDVYNYYLGNG
B7: untagged Atg23 (natural protein, S. cerevisiae, UniProt Q06671 1-453, looked up)
chain: T1 sequence (looked up)
B8: FLAG-tagged Atg9^CTR_S948D_S969D (domain or fragment, S. cerevisiae, UniProt Q12142 758-997, looked up)
chain: B3 chain with S191D, S212D

What was measured:
FLAG-tagged Atg23 = target: T1, FLAG-tagged Atg23; assay: pull-down
mass photometry = target: the molecule itself; assay: mass photometry
[1] = target: T2, Atg23^Y16A_K42A_D43A_E380A mutant; assay: pull-down
untagged Atg23 = target: B7; assay: ITC
Myc-tagged Atg23 = target: B2; assay: pull-down
FLAG-tagged Atg9^NTR = target: B6; assay: ITC
FLAG-tagged Atg9^CTR [2] = target: B3; assay: ITC
[3] = target: T3, Atg23 (no tag named in the legend); assay: pull-down
FLAG-tagged Atg9^CTR [4] = target: B3; assay: pull-down

Binder: B1
- binding result (FLAG-tagged Atg23): binds

Binder: B2
- stoichiometry N (mass photometry): 2

Binder: B3
- binding result [1]: binds
- Kd (untagged Atg23): 0.54 ± 0.08 µM

Binder: B4
- binding result (Myc-tagged Atg23): binds

Binder: B5
- binding result (Myc-tagged Atg23): binds

Binder: B6
- Kd (untagged Atg23): 6.7 ± 1.2 µM

Binder: B7
- stoichiometry N (FLAG-tagged Atg9^NTR): ~1
- stoichiometry N (FLAG-tagged Atg9^CTR [2]): ~1

Binder: B8
- binding result [3]: binds

Binder: TRGGSFQDFRAEFIQRSTQFLTSLPEFCKEVVSRILGRSTAQRGGYSAV (domain or fragment, S. cerevisiae, UniProt P46989 223-271, looked up) [SUMO*-Atg27^CTR-StrepII^2x]
- binding result (FLAG-tagged Atg9^CTR [4]): binds
